The target in assay [1] is T1, human binding immunoglobulin protein (BiP), residues 26-654 ("full length") (human, UniProt P11021 26-654).
T1 construct: Constructs from Herwig Schueler, Karolinska Institutet; also called full-length BiP; source: E. coli BL21(DE3), purified (ammonium sulfate precipitation, nickel chromatography, Q-Sepharose, Superdex200)
Description: NMR titration; 15N-labelled S1R(cd) (~250 uM) in DPC micelles titrated with unlabelled BiP constructs; 1H,15N SOFAST-HMQC, cross-peak intensities and chemical shifts; 100 mM NaCl, 30 mM DPC, 5 mM 2-mercaptoethanol, 20 mM HEPES pH 6.5, 37 C; full-length BiP without and with 2.5 mM calcium chloride, NBD without calcium, SBD with 2.5 mM calcium. Conditions: both partners purified.

For assay [2], the target named is T2, isolated nucleotide binding domain of human BiP (residues 26-410) (human, UniProt P11021 26-410).
T2 construct: also called NBD; BiP NBD; source: E. coli BL21(DE3), purified (ammonium sulfate precipitation, nickel chromatography, Q-Sepharose, Superdex200)
T2 sequence (P11021 26-410): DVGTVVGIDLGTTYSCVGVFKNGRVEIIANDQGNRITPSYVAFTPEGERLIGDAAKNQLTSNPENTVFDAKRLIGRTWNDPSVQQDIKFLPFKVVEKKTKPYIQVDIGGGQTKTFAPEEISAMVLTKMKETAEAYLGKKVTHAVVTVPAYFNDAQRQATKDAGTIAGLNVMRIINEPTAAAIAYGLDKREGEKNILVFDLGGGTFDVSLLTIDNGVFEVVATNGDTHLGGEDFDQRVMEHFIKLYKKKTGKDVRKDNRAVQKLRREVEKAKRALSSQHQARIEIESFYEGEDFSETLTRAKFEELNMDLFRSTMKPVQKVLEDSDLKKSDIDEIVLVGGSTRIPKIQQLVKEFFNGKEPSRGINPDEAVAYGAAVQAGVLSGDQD
Described as above. Conditions: both partners purified.

T1 sequence (P11021 26-654): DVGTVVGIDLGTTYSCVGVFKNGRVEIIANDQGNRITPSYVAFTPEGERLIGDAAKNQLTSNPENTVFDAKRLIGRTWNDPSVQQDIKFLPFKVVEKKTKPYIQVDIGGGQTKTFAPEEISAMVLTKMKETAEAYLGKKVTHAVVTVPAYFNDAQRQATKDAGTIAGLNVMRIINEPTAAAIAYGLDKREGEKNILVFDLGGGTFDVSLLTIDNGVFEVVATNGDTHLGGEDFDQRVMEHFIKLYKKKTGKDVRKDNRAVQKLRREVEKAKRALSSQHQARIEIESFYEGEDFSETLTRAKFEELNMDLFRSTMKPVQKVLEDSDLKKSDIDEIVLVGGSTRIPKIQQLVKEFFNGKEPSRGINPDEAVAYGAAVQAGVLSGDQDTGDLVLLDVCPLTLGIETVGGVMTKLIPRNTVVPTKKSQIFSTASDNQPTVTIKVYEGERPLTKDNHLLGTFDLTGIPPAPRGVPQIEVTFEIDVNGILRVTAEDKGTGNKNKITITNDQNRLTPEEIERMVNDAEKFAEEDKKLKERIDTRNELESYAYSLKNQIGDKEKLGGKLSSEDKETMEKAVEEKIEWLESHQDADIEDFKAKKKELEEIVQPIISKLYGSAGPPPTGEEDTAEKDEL

B1: human sigma-1 receptor chaperone domain (residues 112-223) (domain or fragment, UniProt Q99720 112-223, looked up)
chain: GSRGHSGRYWAEISDTIISGTFHQWREGTTKSEVFYPGETVVHGPGEATAVEWGPNTWMVEYGRGVIPSTLAFALADTVFSTQDFLTLFYTLRSYARGLRLELTTYLFGQDP
notes: sigma-1 receptor (S1R), human, residues 112-223 (chaperone domain; 223 is the C-terminal residue); 15N-labelled for the titrations; No cleavage of the tag is described; also called S1R(cd); S1R chaperone domain
For B1, the binding result in assay [1] and in assay [2] was “binds” in each case.

The values are drawn from article PMC3774411, “Characterization of the Human Sigma-1 Receptor Chaperone Domain Structure and Binding Immunoglobulin Protein (BiP) Interactions*” (The Journal of Biological Chemistry, 2013).
